How the values were obtained:
[…] [1] = Macrocyclization reaction rate in different buffers (LC-MS); type: biochemical
Method: (§1) For other macrocyclization reactions, 100 μM peptide (e.g. VGAGIGFPAYDG (SEQ ID NO: 68), VGAGIGFPAYRG (SEQ ID NO: 69), or GVAGIGFPAYRG (SEQ ID NO: 84)) was incubated with 20 μM enzyme in a range of buffers for 24 h at 37° C. (see FIGS. 1 to 3).
PatGmac is a slow enzyme; turnover rates reported to date are ˜1 per day (Lee, J., McIntosh, J., Hathaway, B. J. & Schmidt, E. W., 2009; McIntosh, J. A. et al., 2010). […] Adding DMSO gave a small increase in rate but shifted the optimum pH, thus a buffer containing 500 mM NaCl and 5% DMSO at pH 8 gave a reaction rate over 50 times greater (FIG. 1C). Under these conditions, about 7% linearized VGAGIGFP (SEQ ID NO: 70) byproduct was observed which can be separated from cyclo[VGAGIGFP] (SEQ ID NO: 70) by HPLC.

[…] [2] = Macrocyclization reaction, final product ratios by LC-ESI MS ion counts; type: biochemical
Method: For macrocyclization reactions comparing final product ratios after substrate depletion, 100 μM peptide (VGAGIGFPAYDG) (SEQ ID NO: 68) was incubated with 50 μM enzyme in 150 mM NaCl, 10 mM HEPES pH 8, 1 mM TCEP for 120 h at 37° C. Samples were analyzed by ESI or MALDI MS (LCT, Micromass or 4800 MALDI TOF/TOF Analyser, ABSciex).
LC-MS was performed using a Phenomenex Sunfire C18 column (4.6 mm×150 mm). Solvent A was H2O containing 0.1% formic acid and solvent B was MeOH containing 0.1% formic acid. Gradient: 0-2 min 10% B; 2-22 min 10% B to 100% B; 22-27 min 100% B; 27-30 min 100% B to 10% B. High resolution mass spectral data were obtained from a Thermo Instruments MS system (LTQ XL/LTQ Orbitrap Discovery) coupled to a Thermo Instruments HPLC system (Accela PDA detector, Accela PDA autosampler and Accela Pump). The following conditions were used: capillary voltage 45 V, capillary temperature 320° C., auxiliary gas flow rate 10-20 arbitrary units, sheath gas flow rate 40-50 arbitrary units, spray voltage 4.5 kV, mass range 100-2000 amu (maximum resolution 30000).
The peptide VGAGIGFPAYDG (SEQ ID NO: 68) was used as a substrate for PatGmac in biochemical assays (FIG. 4C[[c]]). The ratio of macrocyclized to linear product using this substrate peptide was determined by ion counts obtained from liquid chromatography-electrospray ionization mass spectrometry (LC-ESI MS).

[…] [3] = rates reported to date; cited from earlier work
[…] [4] = Macrocyclization of substrate with modified recognition sequence (Asp to Arg); type: biochemical
Method: as §1
PatGmac K598D produced cyclo[VGAGIGFP] with only 8% linear product, at a rate over an order of magnitude faster than wild-type PatGmac with VGAGIGFPAYDG (SEQ ID NO: 68) (FIGS. 2 and 3).

PatE2/PatE2K = assay: C-terminal cleavage and macrocyclization of heterocyclized, N-terminally cleaved PatE2/PatE2K; type: biochemical; details: 100 μM substrate, 20 μM PatGmac, 24 hours at 37° C., 20 mM Bicine pH 8.1, 500 mM NaCl, 5% DMSO
Method: The final stage in patellamide production is C-terminal cleavage and macrocyclization. This step is catalyzed by the PatGmac domain. In order to macrocyclize our single cassette we incubated 100 μM heterocyclized (with either PatD or TruD) and N-terminally cleaved PatE2/PatE2K with 20 μM PatGmac for 24 hours at 37° C. in 20 mM Bicine pH 8.1, 500 mM NaCl, 5% DMSO to complete the reaction. Completeness of the reaction was confirmed by LCT-ESI MS (FIG. 16). […] PatGmac is also highly expressed in E. coli with between 200 and 250 mg purified protein obtained per liter of culture. The final macrocycles were purified by HPLC on a C18 peptide column. PatD and TruD heterocyclised macrocycles were subjected to HRMS and their structures confirmed by fragmentation (see FIGS. 19 to 21; Table 3). NMR analysis was carried out on TruD and PatD heterocyclised macrocycles, as shown in FIGS. 20 and 21) (Tables 7 and 8).

[5] = 500 mM NaCl and 5% DMSO at pH 8
[6] = 100 μM peptide, 50 μM enzyme, 120 h at 37° C.

B1: PatGmac: macrocyclase domain of PatG, residues 492-851 (protein)
chain: GEDEIESAGVSASEVESSATKQKVALHPHDLDERIPGLADLHNQTLGDPQITIVIIDGDPDYTLSCFEGAEVSKVFPYWHEPAEPITPEDYAAFQSIRDQGLKGKEKEEALEAVIPDTKDRIVLNDHACHVTSTIVGQEHSPVFGIAPNCRVINMPQDAVIRGNYDDVMSPLNLARAIDLALELGANIIHCAFCRPTQTSEGEEILVQAIKKCQDNNVLIVSPTGNNSNESWCLPAVLPGTLAVGAAKVDGTPCHFSNWGGNNTKEGILAPGEEILGAQPCTEEPVRLTGTSMAAPVMTGISALLMSLQVQQGKPVDAEAVRTALLKTAIPCDPEVVEEPERCLRGFVNIPGAMKVLFGQ
linearized VGAGIGFP byproduct ([…] [1]; [5]): about 7%
reaction rate increase ([…] [1]; [5]): over 50 times
rate change on increasing sodium chloride ([…] [1]; NaCl from 150 mM to 500 mM): greater than an order of magnitude improvement in rate
rate change on increasing pH ([…] [1]; pH from 8 to 9, 500 mM NaCl): further tripled the rate
product formed (macrocyclized vs linear) ([…] [2]): only macrocyclized product
Cyclic ion count (%) (M + H = 699) ([…] [2]; [6]): 100%
Linear ion count (%) (M + H = 717) ([…] [2]; [6]): 0%
Unprocessed ion count (%) (M + H = 1123) ([…] [2]; [6]): 0%
turnover rate ([…] [3]): ~1 per day
ratio of macrocyclized and linear products with VGAGIGFPAYRG ([…] [4]): equal amounts of macrocyclized and linear products
reaction rate with VGAGIGFPAYRG ([…] [4]): reacted extremely slowly
macrocyclized (ion count analysis) (PatE2/PatE2K): 100%
